Experimental data reported in paper PMC4330371, “Interaction between the RNA-dependent ATPase and poly(A) polymerase subunits of the TRAMP complex is mediated by short peptides and important for snoRNA processing” (Nucleic Acids Research, 2015).
Entries after “also recorded” stand apart in the source; their conditions may differ. No end group written: not given here.

B1: Trf5 fragment 53-199: yeast two-hybrid construct of Trf5 residues 53–199 (protein)
chain: AIDVEDDDTFGNLVLMENDKSDVDIPVIEEVTSSEDEQRAESSKRNNSLEDNQDFIAFSDSSEDETEQIKEDDDERSSFLLTDEHEVSKLTSQQSLNTESACNVEYPWIRNHCHSKQRRIADWLTSEIKDFVHYISPSKNEIKCRNR
modifications: left off: Gal4 activation domain (from the vector pOAD), end not stated, kept
B2: Trf5 fragment 118-199: yeast two-hybrid construct of Trf5 residues 118–199 (protein, UniProt P48561 118-199, looked up, fragment)
chain: TEQIKEDDDERSSFLLTDEHEVSKLTSQQSLNTESACNVEYPWIRNHCHSKQRRIADWLTSEIKDFVHYISPSKNEIKCRNR
modifications: yeast two-hybrid fusion
B3: Trf5 fragment 98-199: yeast two-hybrid construct of Trf5 residues 98–199 (protein, UniProt P48561 98-199, looked up, fragment)
chain: NNSLEDNQDFIAFSDSSEDETEQIKEDDDERSSFLLTDEHEVSKLTSQQSLNTESACNVEYPWIRNHCHSKQRRIADWLTSEIKDFVHYISPSKNEIKCRNR
modifications: yeast two-hybrid fusion
B4: Trf5 fragment 83-199: yeast two-hybrid construct of Trf5 residues 83–199 (protein, UniProt P48561 83-199, looked up, fragment)
chain: VTSSEDEQRAESSKRNNSLEDNQDFIAFSDSSEDETEQIKEDDDERSSFLLTDEHEVSKLTSQQSLNTESACNVEYPWIRNHCHSKQRRIADWLTSEIKDFVHYISPSKNEIKCRNR
modifications: yeast two-hybrid fusion
B5: full-length TAP-tagged Trf5: TAP-tagged full-length Trf5 expressed from the endogenous TRF5 promoter (protein)
chain: MTRLKAKYSPTKGKRKEDKHTKRMRKSSFTRTQKMLEVFNDNRSHFNKYESLAIDVEDDDTFGNLVLMENDKSDVDIPVIEEVTSSEDEQRAESSKRNNSLEDNQDFIAFSDSSEDETEQIKEDDDERSSFLLTDEHEVSKLTSQQSLNTESACNVEYPWIRNHCHSKQRRIADWLTSEIKDFVHYISPSKNEIKCRNRTIDKLRRAVKELWSDADLHVFGSFATDLYLPGSDIDCVVNSRNRDKEDRNYIYELARHLKNKGLAIRMEVIVKTRVPIIKFIEPQSQLHIDVSFERTNGLEAAKLIREWLRDSPGLRELVLIIKQFLHSRRLNNVHTGGLGGFTVICLVYSFLNMHPRIKSNDIDVLDNLGVLLIDFFELYGKNFGYDDVAISISDGYASYIPKSCWRTLEPSRSKFSLAIQDPGDPNNNISRGSFNMKDIKKAFAGAFELLVNKCWELNSATFKDRVGKSILGNVIKYRGQKRDFNDERDLVQNKAIIENERYHKRRTRIVQEDLFINDTEDLPVEEIYKLDEPAKKKQKAKKDKREGEIKKSAIPSPPPDFGVSRSKLKRKVKKTDQGSLLHQNNLSIDDLMGLSENDQESDQDQKGRDTPSGQDEKSPLETKTVDAQTRRDYWLSKGQAL
modifications: left off: TAP, end not stated, kept
notes: TAP-tagged full-length Trf5 expressed from the endogenous TRF5 promoter
B6: Trf5 fragment 53-139: yeast two-hybrid construct of Trf5 residues 53–139 (protein, UniProt P48561 53-139, looked up, fragment)
chain: AIDVEDDDTFGNLVLMENDKSDVDIPVIEEVTSSEDEQRAESSKRNNSLEDNQDFIAFSDSSEDETEQIKEDDDERSSFLLTDEHEV
modifications: yeast two-hybrid fusion
B7: Trf5 fragment 68-199: yeast two-hybrid construct of Trf5 residues 68–199 (protein, UniProt P48561 68-199, looked up, fragment)
chain: MENDKSDVDIPVIEEVTSSEDEQRAESSKRNNSLEDNQDFIAFSDSSEDETEQIKEDDDERSSFLLTDEHEVSKLTSQQSLNTESACNVEYPWIRNHCHSKQRRIADWLTSEIKDFVHYISPSKNEIKCRNR
modifications: yeast two-hybrid fusion
B8: Trf5 fragment 53-169: yeast two-hybrid construct of Trf5 residues 53–169 (protein, UniProt P48561 53-169, looked up, fragment)
chain: AIDVEDDDTFGNLVLMENDKSDVDIPVIEEVTSSEDEQRAESSKRNNSLEDNQDFIAFSDSSEDETEQIKEDDDERSSFLLTDEHEVSKLTSQQSLNTESACNVEYPWIRNHCHSKQ
modifications: yeast two-hybrid fusion
B9: Trf5 fragment 53-124: yeast two-hybrid construct of Trf5 residues 53–124 (protein, UniProt P48561 53-124, looked up, fragment)
chain: AIDVEDDDTFGNLVLMENDKSDVDIPVIEEVTSSEDEQRAESSKRNNSLEDNQDFIAFSDSSEDETEQIKED
modifications: yeast two-hybrid fusion
B10: Trf5 fragment 53-154: yeast two-hybrid construct of Trf5 residues 53–154 (protein, UniProt P48561 53-154, looked up, fragment)
chain: AIDVEDDDTFGNLVLMENDKSDVDIPVIEEVTSSEDEQRAESSKRNNSLEDNQDFIAFSDSSEDETEQIKEDDDERSSFLLTDEHEVSKLTSQQSLNTESAC
modifications: yeast two-hybrid fusion
B11: Trf5 fragment 53-184: yeast two-hybrid construct of Trf5 residues 53–184 (protein, UniProt P48561 53-184, looked up, fragment)
chain: AIDVEDDDTFGNLVLMENDKSDVDIPVIEEVTSSEDEQRAESSKRNNSLEDNQDFIAFSDSSEDETEQIKEDDDERSSFLLTDEHEVSKLTSQQSLNTESACNVEYPWIRNHCHSKQRRIADWLTSEIKDFV
modifications: yeast two-hybrid fusion

What was measured:
Format in all cases: cell-based, Saccharomyces cerevisiae
[1] = tested on: Mtr4; experiment: Yeast two-hybrid interaction with Mtr4; parameters: key to Y2H interaction with Mtr4: +: growth on both SC-ADE and SC-HIS supplemented with 10 mM 3-AT; -: a failure to interact; conditions: for yeast two-hybrid interaction with Mtr4: full-length Mtr4, growth on SC-ADE and SC-HIS; for Y2H interaction with Mtr4: Trf5 fragments, growth on SC-ADE and SC-HIS supplemented with 10 mM 3-AT
Excerpt: (§1) The yeast two-hybrid assays used plasmids pOBD2 and pOAD that were previously described ([28]). The yeast two-hybrid plasmids for Mtr4 (pAV745), Mtr4-archless (pAV746) and Trf5–53–199 (pAV744) have been previously described as have the positive controls that contain MEC3 and RAD17 ([29]). Yeast two-hybrid plasmids with Trf5 residues 68–199 (pAV759), 83–199 (pAV760), 98–199 (pAV761), 118–199 (pAV766), 53–184 (pAV762), 53–169 (pAV763), 53–154 (pAV764), 53–139 (pAV767) and 53–124 (pAV768) were generated similarly to pAV744. Briefly, these regions of TRF5 were PCR amplified with primers that contain PvuII and PstI sites, digested with those restriction enzymes and cloned into pOAD. The yeast two-hybrid plasmids with Trf5 residues 98–117 were generated by cloning oligonucleotides for this region into the PvuII and PstI sites of pOAD.
(§2) Strain trf4Δ/trf5Δ/pRS416-TRF4 has been previously described (MATa, leu2-Δ0, ura3-Δ0, his3-Δ1, met15-Δ0, trf4Δ::NAT, trf5Δ::KAN; [33]). The TRF5 and trf5-Δ98–117 plasmids were introduced by transformation and selection on media lacking leucine. Transformants were then plated on media containing 5FOA to select for cells that had lost the pRS416-TRF4 plasmid. The rrp44-exo^−, rrp44-endo^− and rrp6Δ::KAN strains are isogenic to this strain and have been previously described ([31]). Yeast two-hybrid strains PJ69–4α and PJ69–4a have been previously described ([28],[34]). They are MATα and MATa, respectively, and in addition are both trp1–901, leu2–3,112, ura3–52, his3–200, gal4Δ, gal80Δ, LYS2::GAL1-HIS3, GAL2-ADE2, met2::GAL7-lacZ.
Yeast two-hybrid assays were carried out as previously described ([29]). Briefly, the MTR4 TRP1 plasmids were transformed into PJ69–4α and the TRF5 LEU2 plasmids were transformed into PJ69–4a. Transformants were crossed to each other and diploids that contain both plasmids were selected on SC-TRP-LEU. These diploids were then serially diluted and spotted on SC-TRP-LEU, SC-ADE and SC-HIS media.

[2] = tested on: Mtr4-archless; experiment: Yeast two-hybrid interaction with Mtr4-archless; conditions: growth on SC-ADE and SC-HIS
Excerpt: as §1
as §2, with “Yeast two-hybrid strains PJ69–4α and PJ69–4a have been previously described ([28],[34]). They are MATα and MATa, respectively, and in addition are both trp1–901, leu2–3,112, ura3–52, his3–200, gal4Δ, gal80Δ, LYS2::GAL1-HIS3, GAL2-ADE2, met2::GAL7-lacZ.” left out

[3] = tested on: endogenous Mtr4; experiment: Co-purification of endogenous Mtr4 with TAP-tagged Trf5; conditions: TAP-tagged Trf5 proteins expressed from endogenous promoter, IgG Sepharose, 2 h at 4°C, IP50/IP150 buffer pH 7.5, western blot with anti-Mtr4
Excerpt: The Trf5-Δ98–117-TAP and Trf5-TAP plasmids are low copy (CEN) plasmids derived from pRS415 ([30]) with the endogenous TRF5 promoter driving expression of Trf5 or Trf5-Δ98–117. The trf5-Δ98–117-TAP plasmid (pAV854) was generated by ligation of three DNA fragments. The first fragment contained the promoter and 5′ end of TRF5 and was generated by PCR with oligonucleotides oAV906 ([…]) and oAV870 ([…]) and digestion with NotI and SpeI. The second fragment contained the 3′ end of TRF5 and was generated by PCR with oligonucleotides oAV871 ([…]) and oAV869 ([…]) and digestion with SpeI and PstI. The third fragment was pAV476 ([31]) digested with NotI and PstI. The TRF5-TAP plasmid (pAV885) was subsequently generated by replacing an XbaI to BstAPI fragment that contained the internal deletion with the corresponding wild-type sequence.
as §2, with “Yeast two-hybrid strains PJ69–4α and PJ69–4a have been previously described ([28],[34]). They are MATα and MATa, respectively, and in addition are both trp1–901, leu2–3,112, ura3–52, his3–200, gal4Δ, gal80Δ, LYS2::GAL1-HIS3, GAL2-ADE2, met2::GAL7-lacZ.” left out

Molecule	Y2H interaction with Mtr4 [1]	other results
Trf5 98–117: yeast two-hybrid construct with Trf5 residues 98–117, conserved 20 amino acid peptide (NNSLEDNQDFIAFSDSSEDE; also: fused to Gal4 activation domain, end not given here)		yeast two-hybrid interaction with Mtr4 [1]: interacts with Mtr4; yeast two-hybrid interaction with Mtr4 ([1]; listed as amino acids 98–117 of Trf5): sufficient for interaction with Mtr4; also recorded: indeed interacted with Mtr4; yeast two-hybrid interaction with Mtr4-archless [2]: interacts both with full-length and archless Mtr4
B1	+	
B2	-	
B3	+	
B4	+	
B5		co-purification of endogenous Mtr4 (words) [3]: results in co-purification of endogenous Mtr4; co-purification of endogenous Mtr4 (words) ([3]; listed as full-length Trf5): readily detectable
B6	+	
B7	+	
B8	+	
B9	+	
B10	+	
B11	+	
